US20250019412A1 (ALPINE IMMUNE SCIENCES, published 2025)
Changes are numbered by the printed parent chain. Names and notes keep the numbering of the source. Read-outs that look alike come from different tables or passages of the source.

T1: recombinant human APRIL (human, UniProt O75888 105-250, limits assumed)
T1 sequence (looked up): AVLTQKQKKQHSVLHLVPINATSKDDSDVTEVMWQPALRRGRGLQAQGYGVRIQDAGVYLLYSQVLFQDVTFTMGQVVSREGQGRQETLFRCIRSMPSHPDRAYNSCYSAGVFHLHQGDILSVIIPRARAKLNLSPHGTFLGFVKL

T2: recombinant mouse APRIL (mouse, UniProt Q9D777 96-241, limits assumed)
T2 sequence (looked up): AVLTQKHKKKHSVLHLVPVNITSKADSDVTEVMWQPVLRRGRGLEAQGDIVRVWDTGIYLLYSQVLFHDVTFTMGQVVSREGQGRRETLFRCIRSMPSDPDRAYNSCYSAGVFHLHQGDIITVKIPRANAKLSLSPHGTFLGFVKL

B1: TACI 13-118, with K77E/F78Y/Y102D, Fc fusion (Fc fusion)
chain: SRVDQEERFPQGLWTGVAMRSCPEEQYWDPLLGTCMSCKTICNHQSQRTCAAFCRSLSCRKEQGEYYDHLLRDCISCASICGQHPKQCADFCENKLRSPVNLPPELEPKSSDKTHTCPPCPAPEAEGAPSVFLFPPKPKDTLMISRTPEVTCVVVDVSHEDPEVKFNWYVDGVEVHNAKTKPREEQYNSTYRVVSVLTVLHQDWLNGKEYKCKVSNKALPAPIEKTISKAKGQPREPQVYTLPPSRDELTKNQVSLTCLVKGFYPSDIAVEWESNGQPENNYKTTPPVLDSDGSFFLYSKLTVDKSRWQQGNVFSCSVMHEALHNHYTQKSLSLSPG
B2: 26 TACI CRD2-Fc (Fc fusion)
chain: SLSCRKEQGEYYDHLLRDCISCASICGQHPKQCADFCENKLRSGSGGGGSEPKSSDKTHTCPPCPAPEAEGAPSVFLFPPKPKDTLMISRTPEVTCVVVDVSHEDPEVKFNWYVDGVEVHNAKTKPREEQYNSTYRVVSVLTVLHQDWLNGKEYKCKVSNKALPAPIEKTISKAKGQPREPQVYTLPPSRDELTKNQVSLTCLVKGFYPSDIAVEWESNGQPENNYKTTPPVLDSDGSFFLYSKLTVDKSRWQQGNVFSCSVMHEALHNHYTQKSLSLSPG
B3: 13 TACI CRD2-Fc (Fc fusion)
chain: B2 chain with E10K, Y11F, D35Y
B4: 7 TACI CRD1/CRD2-Fc (Fc fusion)
variant TACI domain - linker - Fc fusion chain: VAMRSCPEEQYWDPLLGTCMSCKTICNHQSQRTCAAFCRSLSCRKEQGKFYDHLLRDCISCASICGQHPKQCDYFCENKLRSGSGGGGSEPKSSDKTHTCPPCPAPEAEGAPSVFLFPPKPKDTLMISRTPEVTCVVVDVSHEDPEVKFNWYVDGVEVHNAKTKPREEQYNSTYRVVSVLTVLHQDWLNGKEYKCKVSNKALPAPIEKTISKAKGQPREPQVYTLPPSRDELTKNQVSLTCLVKGFYPSDIAVEWESNGQPENNYKTTPPVLDSDGSFFLYSKLTVDKSRWQQGNVFSCSVMHEALHNHYTQKSLSLSPG

Assays:
Assay in all cases: cell-based or functional assay
recombinant human APRIL [1] = target: T1, recombinant human APRIL
recombinant human BAFF [2] = target: T3, recombinant human BAFF (human, UniProt Q9Y275 134-285)
recombinant human APRIL [3] = target: T1, recombinant human APRIL; remark: listed apart in the source
recombinant human BAFF [4] = target: T3, recombinant human BAFF; remark: listed apart in the source
recombinant human APRIL [5] = target: T1, recombinant human APRIL; remark: listed apart in the source
recombinant human BAFF [6] = target: T3, recombinant human BAFF; remark: listed apart in the source
recombinant human BAFF [7] = target: T3, recombinant human BAFF; remark: listed apart in the source
recombinant human APRIL [8] = target: T1, recombinant human APRIL; remark: listed apart in the source
recombinant human BAFF [9] = target: T3, recombinant human BAFF; remark: listed apart in the source
recombinant human APRIL [10] = target: T1, recombinant human APRIL; remark: listed apart in the source
recombinant mouse APRIL = target: T2, recombinant mouse APRIL
recombinant mouse BAFF = recombinant mouse BAFF (mouse, UniProt Q9WU72 127-309)
Chain of recombinant mouse BAFF (Q9WU72 127-309 limits assumed): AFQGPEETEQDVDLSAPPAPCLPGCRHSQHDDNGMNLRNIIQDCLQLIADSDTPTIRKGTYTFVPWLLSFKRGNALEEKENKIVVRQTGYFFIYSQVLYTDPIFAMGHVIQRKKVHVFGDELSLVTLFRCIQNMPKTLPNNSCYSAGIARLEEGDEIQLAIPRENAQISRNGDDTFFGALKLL

Row | Binder | IC50 (nM) APRIL (recombinant human APRIL [1]) [nM] | IC50 APRIL (Δ TACI 30-110) (recombinant human APRIL [1]) | IC50 (nM) BAFF (recombinant human BAFF [2]) [nM] | IC50 BAFF (Δ TACI 30-110) (recombinant human BAFF [2]) | APRIL IC50 (pM) (recombinant human APRIL [3]) | APRIL IC50 (ΔWT) (recombinant human APRIL [3]) | BAFF IC50 (pM) (recombinant human BAFF [4]) | BAFF IC50 (ΔWT) (recombinant human BAFF [4]) | IC50 (nM) APRIL (recombinant human APRIL [5]) [nM] | IC50 APRIL (Δ TACI 30-110-Fc) (recombinant human APRIL [5]) | IC50 (nM) BAFF (recombinant human BAFF [6]) [nM] | IC50 BAFF (Δ TACI 30-110-Fc) (recombinant human BAFF [6]) | IC50 (read off the curve): blockade of human BAFF signalling via TACI (NF-κB luciferase reporter, Jurkat/NF-κB/TACI cells) (recombinant human BAFF [7]) [nM] | IC50 (read off the curve): blockade of human APRIL signalling via TACI (NF-κB luciferase reporter, Jurkat/NF-κB/TACI cells) (recombinant human APRIL [8]) [nM] | IC50 (read off the curve): blockade of human BAFF signalling via TACI (NF-κB luciferase reporter, Jurkat/NF-κB/TACI cells) (recombinant human BAFF [9]) [nM] | IC50 (read off the curve): blockade of human APRIL signalling via TACI (NF-κB luciferase reporter, Jurkat/NF-κB/TACI cells) (recombinant human APRIL [10]) [nM] | IC50 (read off the curve): blockade of mouse APRIL signalling via TACI (NF-κB luciferase reporter, Jurkat/NF-κB/TACI cells) (recombinant mouse APRIL) [nM] | IC50 (read off the curve): blockade of mouse BAFF signalling via TACI (NF-κB luciferase reporter, Jurkat/NF-κB/TACI cells) (recombinant mouse BAFF) [nM]
1 | B1 | 848 | 0.2 fold of TACI 30-110 | 2050 | 0.46 fold of TACI 30-110 | 13200 | 1.07 fold of WT TACI (68-110)-Fc | 1990 | 1.07 fold of WT TACI (68-110)-Fc |  |  |  |  |  |  |  |  |  | 
2 | B2 | 214 | 0.05 fold of TACI 30-110 | 1270 | 0.28 fold of TACI 30-110 | 9210 | 0.75 fold of WT TACI (68-110)-Fc | 1550 | 0.84 fold of WT TACI (68-110)-Fc | 179 | 0.05 fold of TACI 30-110-Fc | 1220 | 0.21 fold of TACI 30-110-Fc | ~0.6 | ~0.6 | ~2 |  |  | 
3 | B3 |  |  |  |  | 12300 | 1 fold of WT TACI (68-110)-Fc | 1850 | 1 fold of WT TACI (68-110)-Fc | 369 | 0.1 fold of TACI 30-110-Fc | 1330 | 0.23 fold of TACI 30-110-Fc | ~2 |  | ~3 | ~5 | ~0.7 | ~5
4 | B4 |  |  |  |  |  |  |  |  |  |  |  |  | ~2 |  |  | ~3 |  | 
